This data set deals with the molecule itself. The data set can be described thus: cross-linking; disulfide-linked species of purified GST-TNIK KD; oxidised in vitro with 50 uM H2O2 at 30°C for 15 min or without H2O2 (air oxidation); nonreducing (-DTT) or reducing (+DTT) SDS-PAGE and Western blotting. For orientation: In western blotting, separated proteins are transferred to a membrane and probed.

B1: Recombinant GST-tagged TNIK kinase domain (human amino acids 1 to 367) (domain or fragment, UniProt Q9UKE5 1-367, looked up)
chain: MASDSPARSLDEIDLSALRDPAGIFELVELVGNGTYGQVYKGRHVKTGQLAAIKVMDVTGDEEEEIKQEINMLKKYSHHRNIATYYGAFIKKNPPGMDDQLWLVMEFCGAGSVTDLIKNTKGNTLKEEWIAYICREILRGLSHLHQHKVIHRDIKGQNVLLTENAEVKLVDFGVSAQLDRTVGRRNTFIGTPYWMAPEVIACDENPDATYDFKSDLWSLGITAIEMAEGAPPLCDMHPMRALFLIPRNPAPRLKSKKWSKKFQSFIESCLVKNHSQRPATEQLMKHPFIRDQPNERQVRIQLKDHIDRTKKKRGEKDETEYEYSGSEEEEEENDSGEPSSILNLPGESTLRRDFLRLQLANKERSEA
notes: Oxidised in vitro with 50 uM H2O2 (30°C, 15 min) or left without H2O2; The disulfide-linked species were seen on nonreducing SDS-PAGE; GST is kept on the protein; also called GST-TNIK KD; TNIK KD; source: bought: Thermo Fisher Scientific, recombinant purified
For B1, the binding result is “binds”.

(Values after PMC11661440, “TNIK: A redox sensor in endothelial cell permeability” (Science Advances, 2024).)
